In publication PMC7068118 (Human Molecular Genetics, 2020):
Values belong to the binder of their own block, whether it stands above or below them.

Columns and labels:
Experiment in all cases: co-IP
[1] = target: Vps13^N1 (Vps13^GFP, conserved asparagine of VAB repeat 1 to alanine) (S. cerevisiae) (UniProt Q07878)
[2] = target: Vps13^N2,3,4S (Vps13^GFP, conserved asparagines of VAB repeats 2, 3 and 4 to serine) (S. cerevisiae) (UniProt Q07878)
[3] = target: Vps13^N3 (Vps13^GFP, conserved asparagine of VAB repeat 3 to alanine) (S. cerevisiae) (UniProt Q07878)
[4] = target: Vps13^N4S (Vps13^GFP N2216S, models VPS13B N2993S) (S. cerevisiae, UniProt Q07878 1-3144, Vps13^N4S (N2216))
[5] = target: Vps13^N4 (Vps13^GFP, conserved asparagine of VAB repeat 4 to alanine) (S. cerevisiae, UniProt Q07878 1-3144, Vps13^N4A (N2216))

recovery relative to WT [1]: 24%
B1: Ypt35-3HA (natural protein)
chain: MSDKISFLPPEPIQLLDEDSTEPELDIDSQQENEGPISASNSNDSTSHSNDCGATITRTRPRRSSSINANFSFQKAHVSDCTIVNGDHGTKFAVWRITVFLEPNLKAFAAKRESYKIQTYKRYSDFVRLRENLLTRIKTAKPEKLNCLQIPHLPPSVQWYSSWKYQEVNLNKDWLAKRQRGLEYFLNHIILNSSLVEMTKDILIQFLEPSKRVA

recovery relative to WT [2]: 42%
pull-down relative to WT [1]: 41%
B2: Spo71-3HA (natural protein)
chain: MDSIVNVVEDDVKYAQRVTSFSSPQNANVKVFTIPRHSFTAFRLSYVSPTELSACSQVTLLGGIPKQWYADQNNQVWKLLTKISLRKVRKQSDMLRRYGYGTIYKKRVGKIPTALYLRKHFTWSYEDNTSIHNGHRLKEAEMEMKRTRSSPVQKSEYKLSLPRRCRSSSDQNFMRQELLKEKKSELSRNNSLPLIDTAQAVDIHPVLHEEDQENTNKRNKSLLSNLKRKDLGESKSISRKDYSHFDRIPSPSSARSVGETDFNYNREPSEDTLRYPDSIIEVTNRTSPAPNSILSRSGQFVNSNDLSDGFSTSNTINNVGLNANEKIFFNALQSMEKENLMLWKTSQKYGTYLDERRKSADAFQKRERGSCVDIGKLHSSHLPFINILPPWPTELTEEERIIHDRLASKHSHHIRKHVHNARNKTSCKIKDSVGTFLGMTNSLTNKATVKKRTGQILKKEKMLVMVKEAIQNKVPLPNFSENECFDTRVSERWKEYIVIARSTGRFDPPILLQFYRHRHIPEIEDISSIATKYHRNPLDFFLSRNCIVKFYSSLDKTISIQKPDKRLGGFIDESIEKKDELKHYSPIKIFILRCSSIRSSGRWYKFLLESLDRQLFTPAINLKIPLTEISIKINLNEIIFQKLIDLGKQEKDRLKICFLQRGYKIFQHPILRYFTVAILEKLKLAHYDYLIRKWDTENPVLGCALKRYDRLEWIPCDEDSLVTGIFAFCQSHLIQYRPIANRLRETKSLEGKCLKEPTPIEGFLIRLTDKYGSARTNFGKYSISTAYFFTCENLLFSMKAYRANPPLPIDSMIDDTSTEIEKEEIWKQWKKIPEVYEQQPYPLDTNDHIEWMNCQTTQSEYDSRDFYAFHCFHRRIDQILKTDNVIDLTEVKDIYQGTRTDYEADKIKYGVYKEASEIFWHRNYEIDDVSRSVINIETSNGLLLKLLATSATVAEEWVIKLKQMISYWKNKQREDTERLLKIRRSNAGLLMLNGEEETKIGENTLRWIVEHGRADEQTFNANGISLSRPLIQKGPLYQKPHKHSVFSKYYVVLISGFIVLFHCFHRSTTGFAKEVLEYAHYVTIPIDDCYLYSGTTTELDLLQRDRTFDEINYGSHALPRVYGDGWRSVEDESSRCFTLWFGTRRALSSNRLQKKGNEKQYTQDYGRQDNNIDPPSAPEADLNNSNVPSNTDKIHFTKKLGVSGKSMVFMARSRQERDLWVMSIYYELERLRRTASTSNSRNQTM

recovery relative to WT [1]: 24%
recovery relative to WT [3]: 67%
pull-down relative to WT [4]: 77%
recovery relative to WT [5]: 42%
B3: Mcp1-3HA (natural protein, S. cerevisiae, UniProt Q12106 1-302, looked up)
chain: MIKLHEVPPEPVDPASLPHDVNAHSPEGDGNPDKRKKIFGIPYPFSRSSCRRFLWNCQKISVLPMALYFPLHAANTLITPAVSPDSAPDDVLMMVREILPSITTKLLVAGITLHVSAGVLLRIVNNWNKPRRNRHRHLKISAEQDLSQDSIGLTGGISGYLFGLYKTFRIPPQVISGYILVPVLIYHLLIMKWVPNSISTEVDFASIKQLLSSKNRWWKWLGGLVPLAILLESGVYHIGSGLCRYFGVRKMTSRKKWSTAINLLTLVGFVSLIRLMKEDSTKLGPNQFESIFKKIRLLLHVN
